Test results taken from patent US20150231240A1, “ANTI-C16ORF54 ANTIBODIES AND METHODS OF USE THEREOF” (priority 2012, published 2015).

T1: human C16orf54 ECD fragment aa9-24 (human)
T1 peptide: SGRVEGPPAWEAAPWP

T2: human C16orf54 ECD fragment aa1-15 (human)
T2 peptide: MPLTPEPPSGRVEGP

T3: human C16orf54 (human, UniProt Q6UWD8 1-224)
T3 construct: also called huC16orf54; hC16orf54
T3 sequence: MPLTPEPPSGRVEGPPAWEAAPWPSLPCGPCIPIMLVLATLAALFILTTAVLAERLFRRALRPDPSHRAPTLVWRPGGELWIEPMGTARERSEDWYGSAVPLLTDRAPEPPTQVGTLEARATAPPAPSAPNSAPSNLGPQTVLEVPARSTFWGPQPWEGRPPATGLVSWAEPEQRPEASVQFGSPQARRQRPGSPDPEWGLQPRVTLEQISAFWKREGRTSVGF

T4: Human C16-ECD peptide (aa1-31) (human)
T4 construct: Coated on plates in the peptide ELISA; also called human extracellular domain peptide
T4 peptide: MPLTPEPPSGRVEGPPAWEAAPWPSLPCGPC

T5: cynomolgus monkey C16orf54 (cynomolgus monkey (Macaca fascicularis), UniProt Q6UWD8 1-224 (human entry))
T5 construct: also called cyno C16orf54; cyno-C16orf54
T5 chain: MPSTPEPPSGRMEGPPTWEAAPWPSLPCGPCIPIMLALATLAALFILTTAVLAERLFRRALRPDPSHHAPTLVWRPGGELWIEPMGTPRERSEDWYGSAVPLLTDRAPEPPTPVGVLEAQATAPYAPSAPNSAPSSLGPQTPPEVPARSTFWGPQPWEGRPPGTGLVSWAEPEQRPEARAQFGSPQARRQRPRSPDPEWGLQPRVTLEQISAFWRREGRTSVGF

T6: extracellular domain of c16orf54 (amino acids 1-31) fused to human IgG1 Fc (Homo sapiens, UniProt Q6UWD8)
T6 construct: the extracellular domain of c16orf54 (amino acids 1-31) either N terminal or C-terminal to a human IgG1 Fc domain; made in house; host or cells: 293 T cells, transient; Protein A purification
T6 sequence (Q6UWD8 1-31 limits assumed): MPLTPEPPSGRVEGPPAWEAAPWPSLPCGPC

T7: human C16orf54 (Homo sapiens, UniProt Q6UWD8)
T7 construct: expressed in transfected cells; host or cells: murine sarcoma cells (D42M1-huC16orf54)
T7 sequence (Q6UWD8 1-224): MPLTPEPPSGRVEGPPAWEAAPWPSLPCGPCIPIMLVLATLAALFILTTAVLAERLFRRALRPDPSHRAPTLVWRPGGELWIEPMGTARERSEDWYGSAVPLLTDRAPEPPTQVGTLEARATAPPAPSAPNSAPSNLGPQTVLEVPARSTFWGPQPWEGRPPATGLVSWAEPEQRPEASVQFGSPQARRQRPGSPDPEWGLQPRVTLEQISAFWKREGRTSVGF

B1: R29-8-57B (antibody, V domains shown)
VH: DVQLQESGPGLVKPSQSLSLTCTVTGYSITSDYAWNWIRQFPGNKLEWMGYINYSGSTRYNPSLKSRISITRDTSKNHFFLQLNSVTPEDTATYHCARERYDGVYYGMDYWGQGTSVTVSS
VL: DIVMSQSPSSLAVSVGEKVTMSCKSSQSLLYSSNQKNYLAWYQQKPGQSPKLLIYWASTRESGVPDRFTGSGSGTDFTLTISSVKTEDLAVYYCQQYYSYRTFGGGTKLEIK
notes: Murine monoclonal antibody from a hybridoma
B2: R29-8-136C (antibody, V domains shown)
VH: DVQLQESGPGLVKPSQSLSLTCTVTGYSITSDYAWNWIRQFPGNKLEWMGYINYSGSSRYNPSLKSRISITRDTSKNHFFLQLNSVTPEDTATYHCARERYDGVYYGMDYWGQGTSVTVSS
VL: DIVMSQSPSSLAVSVGEKVTMSCKSSQSLLYSSNQKNYLAWYQQKPGQSPKLLIYWASTRESGVPDRFTGSGSGTDFTLTISSVKTEDLAVYYCQQYYSYRTFGGGTKLEIK
notes: as for B1
B3: R29-8-57B: murine anti-C16orf54 monoclonal antibody; VH SEQ ID NO: 20, VL SEQ ID NO: 22 (antibody, V domains shown)
VH: MRVLILLWLFTAFPGILSDVQLQESGPGLVKPSQSLSLTCTVTGYSITSDYAWNWIRQFPGNKLEWMGYINYSGSTRYNPSLKSRISITRDTSKNHFFLQLNSVTPEDTATYHCARERYDGVYYGMDYWGQGTSVTVSS
VL: MDSQAQVLMSLLLWVSGTCGDIVMSQSPSSLAVSVGEKVTMSCKSSQSLLYSSNQKNYLAWYQQKPGQSPKLLIYWASTRESGVPDRFTGSGSGTDFTLTISSVKTEDLAVYYCQQYYSYRTFGGGTKLEIK
modifications: R29-8-57B heavy chain variable region; R29-8-57B light chain variable region
B4: R29-8-136C: murine anti-C16orf54 monoclonal antibody; VH SEQ ID NO: 16, VL SEQ ID NO: 18 (antibody, V domains shown)
VH: MRVLILLWLFTAFPGILSDVQLQESGPGLVKPSQSLSLTCTVTGYSITSDYAWNWIRQFPGNKLEWMGYINYSGSSRYNPSLKSRISITRDTSKNHFFLQLNSVTPEDTATYHCARERYDGVYYGMDYWGQGTSVTVSS
VL: MDSQAQVLMSLLLWVSGTCGDIVMSQSPSSLAVSVGEKVTMSCKSSQSLLYSSNQKNYLAWYQQKPGQSPKLLIYWASTRESGVPDRFTGSGSGTDFTLTISSVKTEDLAVYYCQQYYSYRTFGGGTKLEIK
modifications: R29-8-136C heavy chain variable region; R29-8-136C light chain variable region

How the values were obtained:
[1] = biological target: T1, human C16orf54 ECD fragment aa9-24; experiment: peptide ELISA, 2 ug/ml peptide coated, 10 ug/ml antibody
Experimental: (§1) Anti-C16orf54 antibodies which bind to human C16orf54, including antibodies that are crossreactive with cyno C16orf54, were tested for their binding to various peptides derived from C16orf54 in a peptide ELISA. A 384-well high binding black microplate (Greiner) was incubated with 2 μg/ml of protein (human, cyno, or mouse extracellular domain peptides) for 16 hours, incubated for 1 hr with a blocking buffer (PBS with 5% Fetal Bovine Serum), washed four times with TBS with Tween, incubated for 1 hour with 10 μg/ml of anti-C16orf54 antibody, washed four times with TBS with Tween, incubated for 1 hour with 10 μg/ml of Peroxidase-AffiniPure Goat Anti-Mouse IgG, Fcγ Fragment Specific (Jackson ImmunoResearch), washed four times with TBS with Tween, and peroxidase was detected with a luminometer (Molecular Devices) upon addition of SuperSignal® ELISA Pico Chemiluminescent Substrate (Thermo Scientific). The luminescence signal was determined.

[2] = biological target: T2, human C16orf54 ECD fragment aa1-15; experiment: as above
Experimental: as §1

[3] = biological target: T3, human C16orf54; experiment: flow cytometry, 10 ug/ml antibody, D42M1-huC16orf54 cells
Experimental: (§2) Anti-C16orf54 antibodies which bound to human C16orf54 were tested for their reactivity with human C16orf54 and their crossreactivity with C16orf54 from cynomolgous monkeys (cyno C16orf54) using flow cytometry. Sarcoma cells transfected with and expressing human C16orf54 or cyno C16orf54 were washed with PBS with 0.1% BSA, incubated with FcX receptor blocking solution (BioLegend) for 15 minutes, incubated with 10 μg/ml of anti-C16orf54 antibody for 1 hour at 4° C., washed twice with PBS with 0.1% BSA, incubated with 20 μg/ml of R-Phycoerythrin-AffiniPure F(ab′)2 Fragment Goat Anti-Mouse IgG, Fcγ Fragment Specific (Jackson ImmunoResearch) for 30 minutes at 4° C., washed twice with PBS with 0.1% BSA, incubated with the viability dye TO-PRO-3 iodide (Life Technologies), and immediately analyzed on a MACSQuant Analyzer instrument (Miltenyi). For each cell line and anti-C16orf54 antibody, a fold change was derived by dividing the median fluorescence intensity for Phycoerythrin in the live cell population for the anti-C16orf54 antibody by the median fluorescence intensity for Phycoerythrin in the live cell population for the IgG isotype control antibody. A number of anti-C16orf54 antibodies (see, e.g., R29-8-57B, R29-8-136C, R29-7-1C, R29-67-7A, R29-67-4A, and R29-7-2A) bind human C16orf54 and also bind (e.g., are crossreactive with) cyno C16orf54.

[4] = biological target: T3, human C16orf54; experiment: flow cytometry titration, KG1 cells (endogenous human C16orf54)
[5] = biological target: T4, Human C16-ECD peptide (aa1-31); experiment: column head 'Full kinetics (nM)' in the table of the C16orf54 peptide binding assays; method and antigen not described; 3 runs
[6] = biological target: T5, cynomolgus monkey C16orf54; experiment: flow cytometry, 10 ug/ml antibody, F279-cyno-C16orf54 cells
Experimental: as §2

[7] = biological target: T5, cynomolgus monkey C16orf54; experiment: flow cytometry titration, F279-cyno-C16orf54 cells
Experimental: Anti-C16orf54 antibodies which bound to human C16orf54 were tested for their binding to cells expressing human C16orf54 and cells expressing cyno C16orf54. […] Median fluorescence intensities for each primary antibody concentration were used to derive a flow EC50/Kd using the one site-specific binding with Hill slope model in Prism (GraphPad Prism® Software). Results are shown as flow EC50 in Table 35.

[8] = test system: human C16orf54 extracellular domain peptides; experiment: C16orf54 peptide ELISA, human extracellular domain peptides; format: binding; details: human, cyno, or mouse extracellular domain peptides, not told apart; 10 μg/ml antibody
Experimental: as §1

[9] = biological target: T6, extracellular domain of c16orf54 (amino acids 1-31) fused to human IgG1 Fc; experiment: C16orf54 peptide-Fc fusion protein ELISA; format: binding; details: serial dilution of antibody; HRP-conjugated anti mouse secondary
Experimental: Anti-C16orf54 antibodies which bind to human C16orf54, including antibodies that are crossreactive with cyno C16orf54, were tested for their binding to various peptides derived from C16orf54 that were fused to human IgG (e.g., IgG1) constant regions to generate various peptide-Fc fusion proteins in an Fc-based ELISA. An exemplary Fc sequence comprises an IgG1 Hinge region sequence and IgG1 CH3 and […] domain sequences.
The fusion proteins were transiently expressed in 293 T cells. Protein was purified from the 293 expression supernatants by Protein A-based affinity purification. Exemplary C16 peptide-Fc fusion constructs that were made and purified are shown with their protein yield in Table 38. ELISA assays were performed by coating 384 well plates with the fusion proteins overnight at 4C. Antibodies were analyzed by serial dilution with concentrations ranging from 40 ug/mL to […]. Binding was detected with an HRP-conjugated anti mouse secondary antibody.

[10] = biological target: T7, human C16orf54; experiment: Flow cytometry reactivity with sarcoma cells expressing human C16orf54 (fold change over isotype); format: binding; details: for binding to human C16orf54 (flow cytometry): sarcoma cells expressing human C16orf54, 10 μg/ml antibody
Experimental: as §2, with “antibody.” for “antibody. A number of anti-C16orf54 antibodies (see, e.g., R29-8-57B, R29-8-136C, R29-7-1C, R29-67-7A, R29-67-4A, and R29-7-2A) bind human C16orf54 and also bind (e.g., are crossreactive with) cyno C16orf54.”

[11] = test system: C16orf54 ECD peptides; experiment: Peptide crossblocking (Table 36); format: binding

Molecule	binding result [1]	binding result [2]	Median fold change relative to IgG control [3] [fold]	EC50 [4] [nM]	Kd [5] [nM]	Median fold change relative to IgG control [6] [fold]	EC50 [7] [nM]	binding to peptides derived from the extracellular domain of C16orf54 (peptide ELISA) [8]	binding to peptide-Fc fusion proteins (Fc-based ELISA) [9]	binding to C16orf54-expressing cells (dual binders) [10]	binding to human C16orf54 (flow cytometry) [10]	Peptide crossblocking [11]
B1	binds	binds	204	0.1	0.6	62	2.5	–	–	–	–	–
B2	binds	binds	202	0.2	0.64	61.6	2.5	–	–	–	–	–
B3	–	–	–	–	–	–	–	bind to the various peptides derived from the extracellular domain (ECD) of C16orf54	able to bind to the peptide-Fc fusion proteins	bind to C16orf54-expressing cells	bind human C16orf54	aa1-31, aa1-15
B4	–	–	–	–	–	–	–	bind to the various peptides derived from the extracellular domain (ECD) of C16orf54	–	bind to C16orf54-expressing cells	bind human C16orf54	aa1-31, aa1-15
